This is an account of results in patent publication US11739318B1, “Modified biosensors and biocatalysts and methods of use” (priority 2017, dated 2023).

For data set [1], the system named is pNP sensor. Put plainly: Raw whole cell fluorescence with pNP sensor and sfGFP-PON1 under positive feedback regulation, flow cytometer. The conditions noted are these: mean of duplicate cultures ± SD. The class given is cell-based, E. coli. An excerpt: FIGS. 16A-16D show ‘Catalyze’ and ‘sense’ system for hydrolysis reactions. […] UI: background fluorescence from cells without any pNP source to induce the TF; […]; pNP: TF induced by exogenously supplied pNP as a control/reference. […] Relative activity levels are distinguishable by eye.
The technique described here (referred to in this example as “smart microbial cells” or SMC; e.g., FIGS. 1A and 1B) allows for catalysis and sensing in the same microbial cell. For a practical library application, we simplified and improved the signal to noise ratio of the biosensor. This was achieved by gene fusing the PON1 to the GFP so that the TF is also regulating the catalytic enzyme expression as well (scheme shown in FIG. 1B). This fusion is expected to have three distinct effects. First, it provides positive feedback, such that more the activity, the more PON1 is expressed, and in turn further ‘feeds’ the activity. […] Second, feedback will amplify the already present correlation between activity and GFP expression. Third, for suitably chosen GFP, the fluorescence signal conveniently reports the amount of fused PON1 present, allowing normalization for specific activity.
. Based on the catalytic efficiency and the cytoplasmic concentration of the hydrolase, PXN hydrolysis results in a correlated pNP production inside the microbial cell that ultimately determines activation of the pNP sensor and accumulation of sfGFP in the cells. […] When pNP was used as an inducer, such that the expression of sfGFP-PON1 expression is independent of the catalytic efficiency of PON1, modest differences in cell fluorescence were still captured across the PON1 variants indicating V346A mutation could be detrimental to PON1 expression and stability (FIG. 16C, Table 6).
A general note: In flow cytometry, cells or beads pass a laser one at a time.

Data set [2] in a line: UbiC enzyme kinetic parameters (pyruvate release coupled to lactate dehydrogenase, NADH oxidation at 340 nm). The data set is classed as biochemical. The settings on record: sfGFP fused UbiC variants with C-terminal 6xHis tag, 30° C., pH 7.5; for Km: chorismate. On the procedure: Enzyme expression and purification: 5 mL cultures were grown from the glycerol stocks of P. putida CJ182 containing plasmids encoding 6×His-tag UbiC variants. At an OD600 of ˜0.6, the cultures were induced with 1 mM 4HB and further grown for 16 h at 30° C. and 225 rpm shaking. The cultures were centrifuged at 3500×g for 10 min and the cell pellets were lysed with 500 μL BugBuster (Novagen) under slow shaking for 30 min. The cell lysates were centrifuged at 15,000×g for 15 min at 4° C. and the sfGFP-UbiC fusion proteins were purified by Affinity Chromatography using Talon beads (Clontech). For purification, the clarified supernatant for each UbiC variant was mixed with 200 μL Talon beads in an equilibration buffer (50 mM Tris-HCl, 300 mM NaCl, pH 7.5) for 30 min. The mixture was centrifuged at 2000×g, the supernatant was discarded and the pellet consisting of Talon beads with bound protein was washed two times with equilibration buffer containing 50 mM imidazole. Finally, the beads were mixed with elution buffer (50 mM Tris-HCl, 300 mM NaCl, 300 mM Imidazole, pH 7.5) and filtered through a spin column with 0.2 µm filter. The enzyme concentration and purity of the protein in the eluate were determined by absorbance at 280 nm using a Nanodrop (Thermo Scientific) and SDS polyacrylamide gel electrophoresis, respectively.
Determining enzyme kinetic parameters: The production of 4HB from chorismate catalyzed by UbiC is accompanied with release of a pyruvate molecule. […] The reactions were conducted in 96-well plate at 30° C. in the Synergy H4 Hybrid Microplate Reader (Biotek). The kinetic parameters and product inhibition constants were determined by measuring the initial reaction rates with respect to varying substrate and product concentrations and calculated using GraphPad Prism software.

The test system of data set [3] is P. putida CJ200. Put plainly: Shake flask muconate production. The settings on record: plasmid expressed, over CJ200 with no heterologous UbiC expression. The data set is classed as cell-based. On the procedure:
Shake flask experiments for muconate production: P. putida CJ200 transformed with pPobR_ubiC plasmids or with genomically integrated ubiC-C22 under PobR regulation (NP015) were grown in 125 mL baffled shake flasks containing 25 mL of 1×M9 salts (6.78 g/L Na2HPO4, 3 g/L KH2PO4, 0.5 g/L NaCl, 1 g/L NH4Cl), 30-50 mM glucose, 2 mM MgSO4, 100 μM CaCl2), 18 μM FeSO4, and 50 μg/mL kanamycin. Seed cultures were grown from glycerol stocks in LB media supplemented with 50 μg/mL kanamycin, for 16 hours, pelleted and washed with M9 growth medium and subcultured into flasks to a final OD600 of 0.05. Cultures were incubated at 30° C. and 225 rpm for up to 2 days. Samples were taken at regular intervals to quantify cell density, glucose consumption, and muconate concentration.
Quantification of glucose and muconate concentrations using High Performance Liquid Chromatography (HPLC): To measure muconate concentration, culture samples collected at various time points were centrifuged either at 3,500 rpm for 10 min or 16,000 rpm for 1 min. […] The samples were analyzed for 10 min on a Fast Acid column (Phenomenex Rezex RFQ-Fast Acid H+(8%)) using 0.01 N H2SO4 at a flow rate of 0.8 mL/min as a mobile phase. […] Alternatively, the samples were analyzed for 40 min on a SUPELCOGEL H Column (SUPELCO) with 0.1% H2SO4 at 0.5 mL/min. […]

For data set [4], the system named is BKA. Put plainly: BKA sensing with PcaR variants in high BKA producing strain NN7. The class given is cell-based, P. putida. The settings on record: strain NN7, LB background BKA production. From the text:
Rosetta homology modeling, using a known structure of a transcription factor with a homologous sequence (PDB code 2G7U) was used to get a 3D estimate of the PcaR inducer binding domain. Based on the predicted structure, several amino acids in the pocket were identified to be suitable for mutagenesis. […] Positions N140, L161, L166, L172, M179, L234, L238, S240, N257 and S259 were mutated for diversification to achieve N/S/T/I at positions 140 and 257, L/M/V at positions 161, 166, 172, 179, 234 and 238, S/T/A at position 240 and 259. This produced a library of diversity>100,000. The library was transformed in high BKA producing strain where native pcaR gene was deleted (strain NN7) and screened for increase fluorescence response with increasing dose of precursors while in the LB mediated BKA production background.

B1: H115W/V346A: PON1 version that combines the two mutations H115W/V346A (protein, UniProt P27169 2-355, looked up, variant H115W V346A)
Serum …: AKLIALTLLGMGLALFRNHQSSYQTRLNALREVQPVELPNCNLVKGIETGSEDLEILPNGLAFISSGLKYPGIKSFNPNSPGKILLMDLNEEDPTVLELGITGSKFDVSSFNPWGISTFTDEDNAMYLLVVNHPDAKSTVELFKFQEEEKSLLHLKTIRHKLLPNLNDIVAVGPEHFYGTNDHYFLDPYLQSWEMYLGLAWSYVVYYSPSEVRVVAEGFDFANGINISPDGKYVYIAELLAHKIHVYEKHANWTLTPLKSLDFNTLVDNISVDPETGDLWVGCHPNGMKIFFYDSENPPASEVLRIQNILTEEPKVTQVYAENGTVLQGSTVASVYKGKLLIGTAFHKALYCEL
B1: in data set [1] (exogenous paraoxon 1.6 mM), the “Raw whole cell fluorescence intensity, PXN (1.6 mM)” value is listed as 2410 ± 669. Also, the “Raw whole cell fluorescence intensity, pNP (200 μM)” value in data set [1] (induced with exogenous pNP 200 μM) was 11484 ± 2032. In addition, in data set [1] (uninduced, no pNP source), the “Raw whole cell fluorescence intensity, UI” value is on record as 248 ± 36.

B2: UbiC_C21: E. coli UbiC variant with mutations M34V/I78V (protein, UniProt P26602 2-165, looked up, variant M34V I78V)
Chorismate pyruvate-lyase: SHPALTQLRALRYCKEIPALDPQLLDWLLLEDSVTKRFEQQGKTVSVTMIREGFVEQNEIPEELPLLPKESRYWLREVLLCADGEPWLAGRTVVPVSTLSGPELALQKLGKTPLGRYLFTSSTLTRDFIEIGRDAGLWGRRSRLRLSGKPLLLTELFLPASPLY
As to B2, in data set [2], the kcat was determined as 0.67 ± 0.06 s⁻¹ and the Km turned out to be 90.2 ± 7.8 µM. This molecule also came in with a muconate yield increase in data set [3] of around 130%.

B3: UbiC_C11: E. coli UbiC variant with mutations E31Q/I78V/L80V (protein, UniProt P26602 2-165, looked up, variant E31Q I78V L80V)
Chorismate pyruvate-lyase: SHPALTQLRALRYCKEIPALDPQLLDWLLLQDSMTKRFEQQGKTVSVTMIREGFVEQNEIPEELPLLPKESRYWLREVLVCADGEPWLAGRTVVPVSTLSGPELALQKLGKTPLGRYLFTSSTLTRDFIEIGRDAGLWGRRSRLRLSGKPLLLTELFLPASPLY
Consider B3, for which, in data set [2], the kcat amounted to 0.51 ± 0.04 s⁻¹ and the Km stood at 54.7 ± 3.4 µM.

B4: UbiC_C22: E. coli UbiC variant with mutations E31Q/M34V (protein, UniProt P26602 2-165, looked up, variant E31Q M34V)
Chorismate pyruvate-lyase: SHPALTQLRALRYCKEIPALDPQLLDWLLLQDSVTKRFEQQGKTVSVTMIREGFVEQNEIPEELPLLPKESRYWLREILLCADGEPWLAGRTVVPVSTLSGPELALQKLGKTPLGRYLFTSSTLTRDFIEIGRDAGLWGRRSRLRLSGKPLLLTELFLPASPLY
As to B4, in data set [2], the kcat was found to be 1.04 ± 0.09 s⁻¹ and the Km is 148 ± 9.4 µM. The molecule also had a muconate yield increase in data set [3] of around 130%.

B5: PcaR-G5: PcaR variant for a low sensitivity BKA sensor, SEQ ID NO: 26 (protein)
chain: MSDETLGNDSGNAEVARPASAAMAPPIVASPAKRIQAFTGDPDFMTSLARGLAVIQAFQERKRHLTIAQISHRTEIPRAAVRRCLHTLIKLGYATTDGRTYSLLPKVLTLGHAYLSSTPLAISAQPYLDRISDQLHEAANMATLEGDDILYIARSATVERLISVDLSVGGRMPAYCTSMGRILLAAMDDTSLREYLERADLKARTSRTLNDPESLFACIQQVRAQGWCVVDQELEQGVRAIAVPVYDASGQVLAALSVSTHVGRVTRSELEQRFLPILLAASRDLCHQLFG
modifications: PcaR-G5
Consider B5, for which the “fluorescence response with BKA precursors, catechol and PCA” value (shortened to “fluorescence response”) in data set [4] is “showed dose dependent response”.

B6: PcaR-H6: PcaR variant for a low sensitivity BKA sensor, SEQ ID NO: 28 (protein)
chain: MSDETLGNDSGNAEVARPASAAMAPPIVASPAKRIQAFTGDPDFMTSLARGLAVIQAFQERKRHLTIAQISHRTEIPRAAVRRCLHTLIKLGYATTDGRTYSLLPKVLTLGHAYLSSTPLAISAQPYLDRISDQLHEAANMATLEGDDILYIARSATVERLISVDLSVGGRMPAYCTSMGRILLAAMDDTSLREYLERADLKARTSRTLNDPESLFACIQQVRAQGWCVVDQELEQGVRSIAVPVYDASGQVLAALSVSTHVGRVTRSELEQRFLPILLAASRDLCHQLFG
modifications: PcaR-H6
For the molecule B6, in data set [4], the “fluorescence response” value is given as “showed dose dependent response”.

B7: PcaR-F6: PcaR variant for a low sensitivity BKA sensor, SEQ ID NO: 27 (protein)
chain: MSDETLGNDSGNAEVARPASAAMAPPIVASPAKRIQAFTGDPDFMTSLARGLAVIQAFQERKRHLTIAQISHRTEIPRAAVRRCLHTLIKLGYATTDGRTYSLLPKVLTLGHAYLSSTPLAISAQPYLDRISDQLHEAANMATLEGDDILYIARSATVERLISVDLSVGGRLPAYCTSMGRILLAAMDDTSLREYLERADLKARTSRTLNDPESLFACIQQVRAQGWCVVDQELEQGMRTIAVPVYDASGQVLAALSVSTHVGRVTRSELEQRFLPILLAASRDLCHQLFG
modifications: PcaR-F6
Regarding B7, the “fluorescence response” value in data set [4] is recorded as “showed dose dependent response”.

By kcat is commonly meant the number of substrate molecules converted per active site and unit of time at saturation. A word on the Km: it is the substrate concentration at which the rate is half of its maximum.
